This passage reports IC50 results from US20210214414A1 (Pfizer, published 2021).

One test has as its target T1, Rabbit SLIT3-N (rabbit, UniProt A0A5F9DK65 34-1126).
T1 construct: domain: SLIT3-N; d2-labelled in the HTRF assay
T1 sequence: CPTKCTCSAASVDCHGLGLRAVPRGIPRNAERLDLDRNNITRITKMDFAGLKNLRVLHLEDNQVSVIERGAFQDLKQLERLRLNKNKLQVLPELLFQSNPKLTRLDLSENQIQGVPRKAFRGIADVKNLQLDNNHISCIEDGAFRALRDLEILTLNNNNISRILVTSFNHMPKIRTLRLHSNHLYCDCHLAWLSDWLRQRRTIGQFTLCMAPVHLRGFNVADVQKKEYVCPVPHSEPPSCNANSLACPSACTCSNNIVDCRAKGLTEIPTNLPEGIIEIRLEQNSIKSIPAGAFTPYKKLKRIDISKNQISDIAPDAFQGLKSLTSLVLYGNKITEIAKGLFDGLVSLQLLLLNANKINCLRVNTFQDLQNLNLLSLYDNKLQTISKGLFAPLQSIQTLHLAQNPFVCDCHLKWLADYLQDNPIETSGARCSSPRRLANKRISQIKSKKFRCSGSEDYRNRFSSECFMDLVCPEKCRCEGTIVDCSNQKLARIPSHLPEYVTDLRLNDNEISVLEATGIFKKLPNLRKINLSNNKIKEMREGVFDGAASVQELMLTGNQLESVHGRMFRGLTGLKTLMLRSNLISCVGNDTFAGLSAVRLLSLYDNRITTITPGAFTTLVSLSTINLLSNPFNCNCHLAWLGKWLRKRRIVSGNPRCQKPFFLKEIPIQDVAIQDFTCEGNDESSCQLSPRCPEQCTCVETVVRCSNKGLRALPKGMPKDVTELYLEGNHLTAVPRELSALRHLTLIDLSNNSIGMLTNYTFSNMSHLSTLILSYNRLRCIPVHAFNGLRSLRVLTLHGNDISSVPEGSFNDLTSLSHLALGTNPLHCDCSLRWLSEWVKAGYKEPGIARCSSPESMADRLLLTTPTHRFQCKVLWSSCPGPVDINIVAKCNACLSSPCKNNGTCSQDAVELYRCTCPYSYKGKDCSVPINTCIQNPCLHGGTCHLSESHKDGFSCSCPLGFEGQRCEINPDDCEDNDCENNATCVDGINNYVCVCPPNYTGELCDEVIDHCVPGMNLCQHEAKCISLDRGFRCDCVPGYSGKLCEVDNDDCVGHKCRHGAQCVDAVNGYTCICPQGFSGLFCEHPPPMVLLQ
In words: HTRF competition: d2-labelled rabbit SLIT3-N binding to human ROBO2 on HEK293 cells; geometric mean, n=3. As to the method: (§1) After incubation, fluorescence at 665 nm and 620 nm was measured on an Envision multilabel plate reader. The HTRF Ratio was calculated as follows: fluorescence at 665 nm/fluorescence at 620 nm×10,000. […] The IC₅₀ for each SLITx-N was determined using an 11-point, 4-fold dilution series with a top concentration of 4000 nM.
In general terms: In TR-FRET formats the signal depends on donor and acceptor labels being close together.

A further test addresses T2, Rat SLIT3-N (rat, UniProt O88280 34-1119, limits assumed).
T2 construct: domain: SLIT3-N; d2-labelled in the HTRF assay
T2 sequence (looked up): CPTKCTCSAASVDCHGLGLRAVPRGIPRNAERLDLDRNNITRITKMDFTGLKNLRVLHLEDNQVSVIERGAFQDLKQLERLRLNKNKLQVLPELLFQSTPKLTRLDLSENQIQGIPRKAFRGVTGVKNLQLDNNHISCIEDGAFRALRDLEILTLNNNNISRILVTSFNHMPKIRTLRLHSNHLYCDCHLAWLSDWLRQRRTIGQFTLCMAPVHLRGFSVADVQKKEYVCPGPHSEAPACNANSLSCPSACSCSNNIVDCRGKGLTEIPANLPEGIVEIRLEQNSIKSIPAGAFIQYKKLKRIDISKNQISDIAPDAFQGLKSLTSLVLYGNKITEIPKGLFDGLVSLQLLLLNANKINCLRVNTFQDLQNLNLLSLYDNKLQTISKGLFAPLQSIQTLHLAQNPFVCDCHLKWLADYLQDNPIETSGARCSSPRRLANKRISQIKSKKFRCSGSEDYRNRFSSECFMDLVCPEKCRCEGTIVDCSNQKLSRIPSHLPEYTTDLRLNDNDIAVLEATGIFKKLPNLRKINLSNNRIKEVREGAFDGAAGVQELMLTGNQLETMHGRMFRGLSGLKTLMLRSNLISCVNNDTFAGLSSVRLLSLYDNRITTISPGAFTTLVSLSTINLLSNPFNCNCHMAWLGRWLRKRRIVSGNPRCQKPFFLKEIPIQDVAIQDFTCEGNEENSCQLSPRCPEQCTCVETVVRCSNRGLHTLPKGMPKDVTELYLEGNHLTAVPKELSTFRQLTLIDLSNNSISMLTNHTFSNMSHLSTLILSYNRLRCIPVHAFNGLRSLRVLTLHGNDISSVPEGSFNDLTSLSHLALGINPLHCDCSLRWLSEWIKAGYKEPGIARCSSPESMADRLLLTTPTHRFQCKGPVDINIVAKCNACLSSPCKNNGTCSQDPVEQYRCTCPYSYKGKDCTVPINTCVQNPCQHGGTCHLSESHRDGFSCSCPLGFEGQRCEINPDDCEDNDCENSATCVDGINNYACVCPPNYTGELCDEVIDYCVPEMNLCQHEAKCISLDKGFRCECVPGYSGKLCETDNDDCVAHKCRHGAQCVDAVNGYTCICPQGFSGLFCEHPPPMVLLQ
As to the kind of experiment: HTRF competition: d2-labelled rat SLIT3-N binding to human ROBO2 on HEK293 cells; geometric mean, n=3. How it is done:
as §1

B1: ROBO2-Fc 2.2 (Fc fusion)
chain: SRLRQEDFPPRIVEHPSDVIVSKGEPTTLNCKAEGRPTPTIEWYKDGERVETDKDDPRSHRMLLPSGSLFFLRIVHGRRSKPDEGSYVCVARNYLGEAVSRNASLEVALLRDDFRQNPTDVVVAAGEPAILECQPPRGHPEPTIYWKKDKVRIDDKEERISIRGGKLMISNTRKSDAGMYTCVGTNMVGERDSDPAELTVFERGGSGGSEPKSSDKTHTCPPCPAPEAAGAPSVFLFPPKPKDTLMISRTPEVTCVVVDVSHEDPEVKFNWYVDGVEVHNAKTKPREEQYNSTYRVVSVLTVLHQDWLNGKEYKCKVSNKALPAPIEKTISKAKGQPREPQVYTLPPSREEMTKNQVSLTCLVKGFYPSDIAVEWESNGQPENNYKTTPPVLDSDGSFFLYSKLTVDKSRWQQGNVFSCSVMHEALHNHYTQKSLSLSPG
notes: Labelled with Alexa Fluor 647 in the flow cytometry assay; also called ROBO-Fc 2.2; ROBO2-Fc 2.2-AF647
One may read the IC50 as the concentration that inhibits the measured activity by half. High values mean lower potency, low ones higher potency. Regarding B1, the IC50 with Rabbit SLIT3-N came to 10.2 nM; with Rat SLIT3-N it was 3 nM.
